Where a chain is given by its changes, count along the chain named. In names and notes the source's numbering stands.
B1: His-CAL1(1-160) F43R (domain or fragment)
chain: MANAVVDEETLEAMVYERSKAWSSKMADFASLEDGMEIDVAERDNLFHGEDEDPDLDDVAKEAVEDNVPDEAKLEMGHINATSVTELTLILCANEDNEAKAEIEEILNQTVPVVEEHKRKWREAGLDRILDTFDEKQIEHHVGRWMRRHNSVYLEASPPK
notes: CAL1, Drosophila melanogaster, residues 1-160, codon optimised; source: E. coli, recombinant, purified; not shown: His, N-terminal, kept
B2: His-CAL1(1-160-LL-841-979) (domain or fragment, Drosophila melanogaster)
chain: MANAVVDEETLEAMVYERSKAWSSKMADFASLEDGMEIDVAEFDNLFHGEDEDPDLDDVAKEAVEDNVPDEAKLEMGHINATSVTELTLILCANEDNEAKAEIEEILNQTVPVVEEHKRKWREAGLDRILDTFDEKQIEHHVGRWMRRHNSVYLEASPPKGSSGGSSGGGDPDCTVVTSTTGCEPPASERQEIPATIKITKRGILLHSPSAPEGASFTLTEQGLGKIIGERWARKYLKYHIGSRSFDSRHSVYYQPTPQLAAALSAPQDAQNIGNISGSSASDDDIFEQINRYGTVYSILENNSGDK
notes: CAL1, Drosophila melanogaster, residues 1-160; flexible linker (LL) in place of residues 161-840; not shown: His, N-terminal, kept
B3: CENP-C(1264-1411) (domain or fragment, Drosophila melanogaster, UniProt Q9VHP9 1264-1411, looked up)
chain: GPVVFSTPLRDEQEEASTKLMQWLRGVGDAPPSASMSDENASVSSANELIFCQVDGIDYAFYNTKEKAMLGYMRFKPYQKRSMKQAKVHPLKLLVQFGEFNVETLAVGEEKEVHSVLRVGDMIEIDRGTRYSIQNAIDKVSVLMCIRS
notes: also called CENP-C cupin domain; source: E. coli Rosetta (DE3), purified; tag removed with 3C, SEC; not shown: His, N-terminal, cleaved
B4: His-CENP-C(1264-1411) (domain or fragment)
chain: B3 chain
notes: vector pEC-K-3C-His; also called CENP-C cupin domain; source: E. coli Rosetta (DE3), purified (HisTrap, SEC); not shown: His, N-terminal, kept
B5: CENP-A(101-225) (domain or fragment, Drosophila melanogaster, UniProt Q9V6Q2 101-225, looked up)
chain: QQESKTRAAGPVAAQNQTRRRKAANPMSRAKRMDREIRRLQHHPGTLIPKLPFSRLVREFIVKYSDDEPLRVTEGALLAMQESCEMYLTQRLADSYMLTKHRNRVTLEVRDMALMAYICDRGRQF
notes: also called CID; histone fold domain of CENP-A
B6: CENP-A(144-225) (domain or fragment, Drosophila melanogaster, UniProt Q9V6Q2 144-225, looked up)
chain: PGTLIPKLPFSRLVREFIVKYSDDEPLRVTEGALLAMQESCEMYLTQRLADSYMLTKHRNRVTLEVRDMALMAYICDRGRQF
B7: CAL1(F43R)-V5 (in U2OS cells) (natural protein, Drosophila melanogaster, UniProt Q9VEN2 1-979, looked up)
chain: MANAVVDEETLEAMVYERSKAWSSKMADFASLEDGMEIDVAERDNLFHGEDEDPDLDDVAKEAVEDNVPDEAKLEMGHINATSVTELTLILCANEDNEAKAEIEEILNQTVPVVEEHKRKWREAGLDRILDTFDEKQIEHHVGRWMRRHNSVYLEASPPKYLPPHHNSISDESDESMHSIDTARYIQQSRRRNAHMTNKNMTTIKMYRKHSHKRDELRAKYAYGDEQEHRHHMQAVLLRRRERERQLAYLASTPMQCVYSSGHHMRRKNLRKRRINSWMFDSASSSEEDTSFGGCDCHSCRRHYALSRSVYQSCPYGRGQREYHHRQMASRTMHTMRRQHTFDMEMDLRPRLPENECSCCNSDRLCSNVIHIANSSTEEWVVENRSNHLTQETQEKTRKQKHQPMDARKVSHQPVCSKGHEQKPLSSKATSVSKLVLSKEKYMQMFDSESSDEDNALAKKGLLCCSDKKKGMTFPTPNAAGKITHPTSSAKKAIRKEARPNGLAQIQEEGPTATNSPIESTYLPVAHMKSVSIDGSSGTSATFESPAKKAPKRGIRETSPLNGNELQQLISTIPIADEKASSLMEKVDNCIGRESFDDRNKDFMHMENSSTKTAVEKSTKQKRVSGKKSEIPKSIITNNEILEKNSTETLSEKQVAAKAKKQSVRKTGATGKPSTSRLKKSEKTKTTSSVTSTSKLEQVREEESDVSSEVLAKPKPQCSTTASILKQGGDGASNSEDDLQIALAMSKATYKEEQQKRKKTKREPSNKQPQSPAEKSMTVFNNQSVACNSTALANDTACYRVLPKRRGVKRAAAVSTTEEKTATNSSSSPTSSLEEMGSPTGGDPDCTVVTSTTGCEPPASERQEIPATIKITKRGILLHSPSAPEGASFTLTEQGLGKIIGERWARKYLKYHIGSRSFDSRHSVYYQPTPQLAAALSAPQDAQNIGNISGSSASDDDIFEQINRYGTVYSILENNSGDK
notes: CAL1, Drosophila melanogaster; non-codon-optimised; source: U2OS cells with a LacO array, transfected, in cells; not shown: V5, C-terminal, kept
B8: CAL1(841-979) (domain or fragment, Drosophila melanogaster, UniProt Q9VEN2 841-979, looked up)
chain: GGDPDCTVVTSTTGCEPPASERQEIPATIKITKRGILLHSPSAPEGASFTLTEQGLGKIIGERWARKYLKYHIGSRSFDSRHSVYYQPTPQLAAALSAPQDAQNIGNISGSSASDDDIFEQINRYGTVYSILENNSGDK
notes: only residues 890-913 are seen in the structure; source: E. coli BL21 (DE3) Gold, purified; not shown: His6, N-terminal, cleaved; SUMO, N-terminal, cleaved

Key:
[1] = biological target: T1, CENP-A(101-225)-H4 (Drosophila melanogaster, UniProt Q9V6Q2 101-225; P84040 1-103); assay: pull-down; His-CAL1(1-160) WT or mutant mixed with 1.3 times molar excess of CENP-A(101-225)-H4 and captured on Ni-NTA resin; 20 mM Tris-HCl pH 8.0, 2 M NaCl, 10% glycerol, 0.5% NP40, 35 mM imidazole, 2 mM βME, 30 min at 4°C; Coomassie-stained SDS-PAGE; conditions: both partners purified
T1 construct: histone H4, Drosophila melanogaster (dm H4); plasmid pET22b H4, gift of Karolin Luger; also called CENP-A/H4; CENP-A/H4 complex

[2] = biological target: T1, CENP-A(101-225)-H4; assay: SEC; refolded His-CAL1(1-160-LL-841-979)/CENP-A(101-225)/H4 alone or mixed with 1.2 molar excess of His-CENP-C(1264-1411); Superdex 200 increase 10/300, 20 mM Tris-HCl pH 8.0, 100 mM NaCl, 2 mM DTT; conditions: both partners purified
[3] = biological target: B4; assay: as above; conditions: both partners purified
[4] = biological target: the molecule itself; assay: SEC-MALS; Superdex 75 increase 10/300 GL, 50 mM HEPES pH 8.0, 100 mM NaCl, 1 mM TCEP, 4°C
[5] = biological target: T2, His-CAL1(1-160-LL-841-979)/CENP-A(101-225)/H4 (Drosophila melanogaster, UniProt Q9VEN2 1-160; Q9VEN2 841-979; Q9V6Q2 101-225; P84040 1-103); assay: SEC; refolded His-CAL1(1-160-LL-841-979)/CENP-A(101-225)/H4 alone or mixed with 1.2 molar excess of His-CENP-C(1264-1411); Superdex 200 increase 10/300, 20 mM Tris-HCl pH 8.0, 100 mM NaCl, 2 mM DTT; conditions: both partners purified
T2 construct: CAL1, Drosophila melanogaster, residues 1-160; flexible linker (LL) in place of residues 161-840; histone H4, Drosophila melanogaster (dm H4); plasmid pET22b H4; not shown: His, N-terminal, kept; copies: + +

[6] = biological target: T3, H4 (Drosophila melanogaster, UniProt P84040 1-103); assay: crystal structure; crystal form I; complex at 27 mg/ml in 20 mM Tris-HCl pH 8.0, 1 M NaCl, 5 mM DTT; 0.01 M cobalt(II) chloride, 0.1 M MES pH 6.5, 1.8 M ammonium sulphate, 18°C; crystals after about a year; conditions: both partners purified
T3 construct: histone H4, Drosophila melanogaster (dm H4); plasmid pET22b H4, gift of Karolin Luger; also called histone H4; dm H4

[7] = biological target: T4, His-CAL1(1-160) (Drosophila melanogaster, UniProt Q9VEN2 1-160); assay: cross-linking; gel-filtered complex dialysed into PBS; EDC/sulpho-NHS 1.5 h or BS3 2 h at RT; gel bands digested with trypsin, LC-MS/MS; conditions: both partners purified
T4 construct: CAL1, Drosophila melanogaster, residues 1-160; In crystal form I only CAL1 residues 17-47 were seen; the authors conclude that CAL1 was proteolytically cleaved during crystallisation; also called His-CAL1(1-160 WT); source: E. coli BL21 (DE3) Gold, purified (HisTrap native or Ni-NTA denaturing; SEC); not shown: His, N-terminal, kept
T4 sequence (looked up): B1 chain with R43F

[8] = biological target: T4, His-CAL1(1-160); assay: crystal structure; crystal form II; complex in 20 mM Tris-HCl pH 8.0, 1 M NaCl, 2 mM DTT; lithium sulphate, 0.1 M Tris pH 8.5, PEG 4000; anisotropic diffraction; conditions: both partners purified
[9] = biological target: T3, H4; assay: as above; conditions: both partners purified
[10] = biological target: T5, CENP-A-GFP-LacI (in U2OS cells) (Drosophila melanogaster, UniProt Q9V6Q2 1-225); assay: LacO/LacI tethering assay (recruitment seen by immunofluorescence); human U2OS cells with a LacO array; GFP-LacI fusion tethered, recruitment of co-transfected CAL1-V5 measured at the LacO spot; conditions: partners not purified
T5 construct: CENP-A (CID), Drosophila melanogaster; source: U2OS cells with a LacO array, transfected (pN2-CMV vector), in cells; not shown: GFP, C-terminal, kept; LacI, C-terminal, kept
T5 sequence (looked up): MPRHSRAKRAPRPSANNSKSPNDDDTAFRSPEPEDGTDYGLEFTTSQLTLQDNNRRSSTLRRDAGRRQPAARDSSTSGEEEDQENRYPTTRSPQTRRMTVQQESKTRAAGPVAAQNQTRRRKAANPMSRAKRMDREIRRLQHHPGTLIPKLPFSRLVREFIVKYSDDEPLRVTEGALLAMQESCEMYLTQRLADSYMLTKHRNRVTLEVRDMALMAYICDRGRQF

[11] = biological target: B3; assay: AUC; sedimentation velocity (49 k rpm) and sedimentation equilibrium (26 k rpm), 4°C; untagged proteins and SEC purified untagged complex; a range of concentrations, up to 10 mg/ml; conditions: both partners purified

B1
binding result [1]: binds

B2
binding result [2]: binds
binding result [3]: binds

B3
stoichiometry N [4]: 2

B4
binding result [5]: binds

B5
binding result [6]: binds
binding result [7]: binds

B6
binding result [8]: binds
binding result [9]: binds

B7
fold change of recruitment against CAL1 WT [10]: 3 fold less than CAL1 WT

B8
stoichiometry N [11]: 1 CAL1 per CENP-C dimer (2:1 CENP-C:CAL1)
